Experimental data: publication PMC6362314, “Both a Unique Motif at the C Terminus and an N-Terminal HEAT Repeat Contribute to G-Quadruplex Binding and Origin Regulation by the Rif1 Protein” (Molecular and Cellular Biology, 2018)

Biological target: the molecule itself
Experiment: native gel or EMSA; purified Rif1 C-terminal polypeptides on a native protein gel (5% to 20% gradient gel), CBB staining; self-association

Protein	stoichiometry N [subunits]
Rif1 C-terminal 91-aa polypeptide (aa 1310 to 1400) (domain or fragment, S. pombe, UniProt Q96UP3 1310-1400, looked up, Rif1, fission yeast (S. pombe), 1,400 amino acids; residues 1310-1400; also called C-terminal 91 amino acids; source: E. coli, purified (nickel column, Mono Q column if necessary)) TENETTAVNGFENSKKRQFSSLLSGSIDTNNESNKVSSVEFDKSGPQDIIQSMTEATFEIEKNIQDLKSEEVQKLSDLLMRLQRAILSRIA	≤ 16
Rif1 C-terminal 272-aa polypeptide (aa 1129 to 1400), wild type (domain or fragment, S. pombe, UniProt Q96UP3 1129-1400, looked up, Rif1, fission yeast (S. pombe), 1,400 amino acids; C-terminal polypeptides were also made in 293T cells (N-terminal His6, C-terminal Flag3); also called Rif1(aa1129-1400); C-terminal polypeptide; source: E. coli, purified (nickel column, Mono Q column if necessary)) KIDETKNEATDMEESLTTPSGKVNKEVIVDDTSLRDEAIVPDKAIDVADNSNALLKENISSQSNRKADNNGTPSVNNSFTTANNDECSKENSQIEPEGQTASREGVLSTPRSTRKKRKLGRKSQSSNVNKEVAISEVSATLENVEVIERHGISEQGQNLDESACVLTNESSLSQTEIPEEKTENETTAVNGFENSKKRQFSSLLSGSIDTNNESNKVSSVEFDKSGPQDIIQSMTEATFEIEKNIQDLKSEEVQKLSDLLMRLQRAILSRIA	≤ 16
Rif1 C-terminal 229-aa polypeptide (aa 1172 to 1400) (domain or fragment, S. pombe, UniProt Q96UP3 1172-1400, looked up, Rif1, fission yeast (S. pombe), 1,400 amino acids; residues 1172-1400; source: E. coli, purified (nickel column, Mono Q column if necessary)) AIDVADNSNALLKENISSQSNRKADNNGTPSVNNSFTTANNDECSKENSQIEPEGQTASREGVLSTPRSTRKKRKLGRKSQSSNVNKEVAISEVSATLENVEVIERHGISEQGQNLDESACVLTNESSLSQTEIPEEKTENETTAVNGFENSKKRQFSSLLSGSIDTNNESNKVSSVEFDKSGPQDIIQSMTEATFEIEKNIQDLKSEEVQKLSDLLMRLQRAILSRIA	≤ 16
Rif1 C-terminal 148-aa polypeptide (aa 1253 to 1400) (domain or fragment, S. pombe, UniProt Q96UP3 1253-1400, looked up, Rif1, fission yeast (S. pombe), 1,400 amino acids; residues 1253-1400; source: E. coli, purified (nickel column, Mono Q column if necessary)) SSNVNKEVAISEVSATLENVEVIERHGISEQGQNLDESACVLTNESSLSQTEIPEEKTENETTAVNGFENSKKRQFSSLLSGSIDTNNESNKVSSVEFDKSGPQDIIQSMTEATFEIEKNIQDLKSEEVQKLSDLLMRLQRAILSRIA	≤ 16
